# Measured values taken from patent US20180086804A1 (COMMISSARIAT A L ENERGIE ATOMIQUE ET AUX ENERGIES …, published 2018).
# No end group written: not given here.
# Biological target: T1, HLA-DR7 (HLA-DRB1*07:01) (human)
# T1 construct: mature; purified from homozygous EBV-transformed lymphoblastoid cells with antibody L243
# Test: competition ELISA vs biotin-YKL
row,Binder,relative affinity
1,PTLQHYLSYTEESLL-NH2 [CCNB1 363-377],1

# Biological target: T1, HLA-DR7 (HLA-DRB1*07:01)
# Test: competition ELISA vs biotin-YKL
# Remark: another data set of the same source
row,Binder,relative affinity
1,PMLVPVPVSEPVPEP-NH2 [CCNB1 87-101],231
2,SKYEEMYPPEIGDFA-NH2 [CCNB1 256-270],61
3,NTYTKHQIRQMEMKI-NH2 [CCNB1 275-289],43
4,HFPPSQIAAGAFCLA-NH2 [CCNB1 338-352],1400
5,LALKILDNGEWTPTL-NH2 [CCNB1 351-365],624

# Biological target: T2, HLA-DRB4 (HLA-DRB4*01:01) (human)
# T2 construct: mature; purified from homozygous EBV-transformed lymphoblastoid cells with antibody L243
# Test: competition ELISA vs biotin-E2/E168
row,Binder,relative affinity
1,PTLQHYLSYTEESLL-NH2 [CCNB1 363-377],5

# Biological target: T3, HLA-DR3 (HLA-DRB1*03:01) (human)
# T3 construct: mature; purified from homozygous EBV-transformed lymphoblastoid cells with antibody L243
# Test: competition ELISA vs biotin-MT 2-16
row,Binder,relative affinity
1,PTLQHYLSYTEESLL-NH2 [CCNB1 363-377],1

# Biological target: T2, HLA-DRB4 (HLA-DRB4*01:01)
# Test: competition ELISA vs biotin-E2/E168
# Remark: another data set of the same source
row,Binder,relative affinity
1,KKLPKPLEKVPMLVP-NH2 [CCNB1 77-91],75
2,PMLVPVPVSEPVPEP-NH2 [CCNB1 87-101],748
3,NCVPKKMLQLVGVTA-NH2 [CCNB1 237-251],1400
4,NTYTKHQIRQMEMKI-NH2 [CCNB1 275-289],80
5,MELTMLDYDMVHFPP-NH2 [CCNB1 327-341],139

# Biological target: T3, HLA-DR3 (HLA-DRB1*03:01)
# Test: competition ELISA vs biotin-MT 2-16
# Remark: another data set of the same source
row,Binder,relative affinity
1,MELTMLDYDMVHFPP-NH2 [CCNB1 327-341],32
2,H-KNVVMVNQGLTKHMT-NH2 (not fully specified) [CCNB1 385-399],228

# Biological target: T4, HLA-DR13 (HLA-DRB1*13:01) (human)
# T4 construct: mature; purified from homozygous EBV-transformed lymphoblastoid cells with antibody L243
# Test: competition ELISA vs biotin-B1 21-36
row,Binder,relative affinity
1,NTYTKHQIRQMEMKI-NH2 [CCNB1 275-289],158
2,H-KNVVMVNQGLTKHMT-NH2 (not fully specified) [CCNB1 385-399],37

# Biological target: T5, HLA-DR15 (HLA-DRB1*15:01) (human)
# T5 construct: mature; purified from homozygous EBV-transformed lymphoblastoid cells with antibody L243
# Test: competition ELISA vs biotin-A3 152-166
row,Binder,relative affinity
1,PTLQHYLSYTEESLL-NH2 [CCNB1 363-377],1

# Biological target: T6, HLA-DR1 (HLA-DRB1*01:01) (human)
# T6 construct: mature; class II HLA molecule purified from homozygous EBV-transformed lymphoblastoid cells with antibody L243
# Test: competition ELISA vs biotin-HA 306-318;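 note: HLA and competitor incubated 24 to 72 h, maximal signal taken from wells lacking competitor, background from wells lacking HLA molecule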
row,Binder,relative affinity
1,PTLQHYLSYTEESLL-NH2 [CCNB1 363-377],28

# Biological target: T7, HLA-DRB5 (HLA-DRB5*01:01) (human)
# T7 construct: mature; purified from homozygous EBV-transformed lymphoblastoid cells with antibody L243
# Test: competition ELISA vs biotin-HA 306-318;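 note: HLA and competitor incubated 24 to 72 h, maximal signal taken from wells lacking competitor, background from wells lacking HLA molecule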
row,Binder,relative affinity
1,PTLQHYLSYTEESLL-NH2 [CCNB1 363-377],24

# Biological target: T8, HLA-DR4 (HLA-DRB1*04:01) (human)
# T8 construct: mature; purified from homozygous EBV-transformed lymphoblastoid cells with antibody L243
# Test: competition ELISA vs biotin-HA 306-318;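 note: HLA and competitor incubated 24 to 72 h, maximal signal taken from wells lacking competitor, background from wells lacking HLA molecule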
row,Binder,relative affinity
1,PTLQHYLSYTEESLL-NH2 [CCNB1 363-377],76

# Biological target: T9, HLA-DR11 (HLA-DRB1*11:01) (human)
# T9 construct: mature; purified from homozygous EBV-transformed lymphoblastoid cells with antibody L243
# Test: competition ELISA vs biotin-HA 306-318;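 note: HLA and competitor incubated 24 to 72 h, maximal signal taken from wells lacking competitor, background from wells lacking HLA molecule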
row,Binder,relative affinity
1,PTLQHYLSYTEESLL-NH2 [CCNB1 363-377],45

# Biological target: T5, HLA-DR15 (HLA-DRB1*15:01)
# Test: competition ELISA vs biotin-A3 152-166
# Remark: another data set of the same source
row,Binder,relative affinity
1,PMLVPVPVSEPVPEP-NH2 [CCNB1 87-101],134
2,NCVPKKMLQLVGVTA-NH2 [CCNB1 237-251],65
3,SKYEEMYPPEIGDFA-NH2 [CCNB1 256-270],153
4,NTYTKHQIRQMEMKI-NH2 [CCNB1 275-289],85
5,MELTMLDYDMVHFPP-NH2 [CCNB1 327-341],10
6,HFPPSQIAAGAFCLA-NH2 [CCNB1 338-352],257
7,LALKILDNGEWTPTL-NH2 [CCNB1 351-365],52
8,H-KNVVMVNQGLTKHMT-NH2 (not fully specified) [CCNB1 385-399],0.02

# Biological target: T6, HLA-DR1 (HLA-DRB1*01:01)
# Test: competition ELISA vs biotin-HA 306-318
# Remark: another data set of the same source
row,Binder,relative affinity
1,PMLVPVPVSEPVPEP-NH2 [CCNB1 87-101],1500
2,NCVPKKMLQLVGVTA-NH2 [CCNB1 237-251],4
3,SKYEEMYPPEIGDFA-NH2 [CCNB1 256-270],3
4,MELTMLDYDMVHFPP-NH2 [CCNB1 327-341],418
5,HFPPSQIAAGAFCLA-NH2 [CCNB1 338-352],598
6,LALKILDNGEWTPTL-NH2 [CCNB1 351-365],648
7,H-KNVVMVNQGLTKHMT-NH2 (not fully specified) [CCNB1 385-399],4500

# Biological target: T7, HLA-DRB5 (HLA-DRB5*01:01)
# Test: competition ELISA vs biotin-HA 306-318
# Remark: another data set of the same source
row,Binder,relative affinity
1,SKYEEMYPPEIGDFA-NH2 [CCNB1 256-270],603
2,NTYTKHQIRQMEMKI-NH2 [CCNB1 275-289],50
3,LALKILDNGEWTPTL-NH2 [CCNB1 351-365],3060
4,H-KNVVMVNQGLTKHMT-NH2 (not fully specified) [CCNB1 385-399],52

# Biological target: T8, HLA-DR4 (HLA-DRB1*04:01)
# Test: competition ELISA vs biotin-HA 306-318
# Remark: another data set of the same source
row,Binder,relative affinity
1,PMLVPVPVSEPVPEP-NH2 [CCNB1 87-101],96
2,SKYEEMYPPEIGDFA-NH2 [CCNB1 256-270],456
3,NTYTKHQIRQMEMKI-NH2 [CCNB1 275-289],456
4,MELTMLDYDMVHFPP-NH2 [CCNB1 327-341],22
5,LALKILDNGEWTPTL-NH2 [CCNB1 351-365],1000
6,H-KNVVMVNQGLTKHMT-NH2 (not fully specified) [CCNB1 385-399],986

# Biological target: T9, HLA-DR11 (HLA-DRB1*11:01)
# Test: competition ELISA vs biotin-HA 306-318
# Remark: another data set of the same source
row,Binder,relative affinity
1,KKLPKPLEKVPMLVP-NH2 [CCNB1 77-91],1630
2,NCVPKKMLQLVGVTA-NH2 [CCNB1 237-251],87
3,SKYEEMYPPEIGDFA-NH2 [CCNB1 256-270],1370
4,NTYTKHQIRQMEMKI-NH2 [CCNB1 275-289],4
5,MELTMLDYDMVHFPP-NH2 [CCNB1 327-341],216
6,LALKILDNGEWTPTL-NH2 [CCNB1 351-365],2330
7,H-KNVVMVNQGLTKHMT-NH2 (not fully specified) [CCNB1 385-399],766

# Biological target: T10, HLA-DRB3 (HLA-DRB3*01:01) (human)
# T10 construct: mature; purified from homozygous EBV-transformed lymphoblastoid cells with antibody L243
# Test: competition ELISA vs biotin-LOL 191-210
row,Binder,relative affinity
1,PTLQHYLSYTEESLL-NH2 [CCNB1 363-377],11

# Biological target: T11, HLA-DP401 (HLA-DPB1*04:01) (human, UniProt P20036 29-222)
# T11 construct: mature; purified from homozygous EBV-transformed lymphoblastoid cells with antibody B7/21
# Test: competition ELISA vs biotin-Oxy 271-287
row,Binder,relative affinity
1,PTLQHYLSYTEESLL-NH2 [CCNB1 363-377],22

# Biological target: T12, HLA-DP402 (HLA-DPB1*04:02) (human, UniProt P20036 29-222)
# T12 construct: mature; purified from homozygous EBV-transformed lymphoblastoid cells with antibody B7/21
# Test: competition ELISA vs biotin-Oxy 271-287
row,Binder,relative affinity
1,PTLQHYLSYTEESLL-NH2 [CCNB1 363-377],50

# Biological target: T11, HLA-DP401 (HLA-DPB1*04:01)
# Test: competition ELISA vs biotin-Oxy 271-287
# Remark: another data set of the same source
row,Binder,relative affinity
1,KKLPKPLEKVPMLVP-NH2 [CCNB1 77-91],212
2,SKYEEMYPPEIGDFA-NH2 [CCNB1 256-270],894
3,MELTMLDYDMVHFPP-NH2 [CCNB1 327-341],2
4,H-KNVVMVNQGLTKHMT-NH2 (not fully specified) [CCNB1 385-399],116

# Biological target: T12, HLA-DP402 (HLA-DPB1*04:02)
# Test: competition ELISA vs biotin-Oxy 271-287
# Remark: another data set of the same source
row,Binder,relative affinity
1,KKLPKPLEKVPMLVP-NH2 [CCNB1 77-91],474
2,MELTMLDYDMVHFPP-NH2 [CCNB1 327-341],47
3,HFPPSQIAAGAFCLA-NH2 [CCNB1 338-352],188
4,LALKILDNGEWTPTL-NH2 [CCNB1 351-365],510
5,H-KNVVMVNQGLTKHMT-NH2 (not fully specified) [CCNB1 385-399],2
